Source: a protein production outcome set (Wang et al. 2014)

Assay: label from the status in PepcDB records
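Note: failed if final PepcDB status was selected cloned or expressed and not failed if soluble or beyond.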

Sequence	protein production
SLSLRPSPRLLCTATKQKNSGQNLEEDMGQSEQKADPPATEKTLLEEKVKLEEQLKETVEKYKRALADTENLRQRSQKLVEEAKLYGIQAFCKDLLEVADVLEKATQCVPKEEIKDDNPHLKNLYEGLVMTEVQIQKVFTKHGLLKLNPVGAKFDPYEHEALFHTPVEGKEPGTVALVSKVGYKLHGRTLRPALVGVVKEA	not failed
SLTGEESDTLRKIVLEECLPNQQQNQNPSPCAEVKPNAGYVVLKDLNGPLQYLLMPTYRINGTESPLLTDPSTPNFFWLAWQARDFMSKKYGQPVPDRAVSLAINSRTGRTQNHFHIHISCIRPDVREQLDNNLANISSRWLPLPGGLRGHEYLARRVTESELVQRSPFMMLAEEVPEAREHMGSYGLAMVRQSDNSFVLLATQRNLLTLNRASAEEIQDHQCEILR	not failed
SLTMDVPPTIHVPLPPTSYPAFDAAIFTDIGGRKHQEDRFTLCPQLVPGRDDCAFFGVFDGTVGDFASENVKDLVVPQLISSPAWQEVTEMLRSDVPATEVDEKLPQLLDQAVDDMYKNADNELVKMCEQLNKDYASSTSVTAVLAKGFVAVGHLGDSRIAMGVETPNGLNCEFLTVDHKPDMPHEKLRIMRNGGSVEYLHNHNNKPFIRGGDFSFRKSRGEQPMQLQYSRAFGGKDLKMYGLSNQPDVRVVRVTPQHRVMILATDGLWDVMSAAQAVEIAMQARQEGRNPAQALVEMTLAEQQSRNQSADNITAMTVFFKKTD	not failed
SNDQYHRAARDGYLELLKEATRKELNAPDEDGMTPTLWAAYHGNLESLRLIVSRGGDPDKCDIWGNTPLHLAASNGHLHCLSFLVSFGANIWCLDNDYHTPLDMAAMKGHMECVRYLDSIAAKQSSLNPKLVGKLKDKAFREAERRIRECAKLQRRHHERMERRYRRELAERSDTLSFSSLTSSTLSRRLQHLALGSHLPYSQATLHGTARGKTKMQKKLERRKQGGEGTFKVSEDGRKSARSLSGLQLGSDVMFVRQGTYANPKEWGRAPLRDMFLSDEDSVSRATLAAEPAHSEVSTDSGHDSLFTRPGLGTMVFRRNYLSSGLHGLGREDGGLDGVGAPRGRLQSSPSLDDDSLGSANSLQDRSCGEELPWDELDLGLDEDLEPETSPLETFLASLHMEDFAALLRQEKIDLEALMLCSDLDLRSISVPLGPRKKILGAVRRRRQAMERPPALEDTEL	not failed
SNQEKLQRTMIHFNNPEVQAFLAVNTFTITGHGETKQLTEMLRSVLNQLAAVSLTSLRRLAEALPKQSVDGKAPLATGEDDDDDEVPGIMENFDEASKNEAN	failed
SNRLPDDYDPYAVEEPSDEEPALSSSEDEVDVLLHGTPDQKRKLIRECLTGESESSSEDEFEKEMEAELNSTMKTMEDKLSSLGTGSSSGNGKVATAPTRYYDDIYFDSDSEDEDRAVQVTKKKKKKQHKIPTNDELLYDPEKDNRDQAWVDAQRRGYHGLGPQRSREQQPVPNSDAVLNCPACMTTLCLDCQRHESYKTQYRAMFVMNCSINKEEVLRYKASENRKKRRVHKKMRSNQEDAAEKAETDVEEIYHPVMCTECSTEVAVYDKDEVFHFFNVLASHS	not failed
SPARPFTVRAPASSANLGPGFDSLGLSVPLYTTLRVTPQDKAEVVPLGTELADTPADESNYVYRAMTLAAKRAGRTLPPARVEIETEVPLARGLGSSAAALVAGVVAGNELLGRPLDDETVLDVTAREEGHPDNVAPALFGGIVVATLDKLGTHY	failed
SPINPYKDHMSVLKAYYAMNMEPNSDELLKISIAVGLPQEFVKEWFEQRKVYQYSNSR	not failed
SPKMDVHETDHEVILECDIPGLESKEDLQIDVEPRSVRIEGRIKRSKEVHDERFYRREREIGHFRRVVPLPAEVAEDDIRAAYRNGVLEVRMRKRLDDRRRTIDVEFH	failed
SQIYASDGETELARIVPPEGNRQMVTIDQVPDTVKNAVVAAEDREFYTNPGFSITGYARAALGVITGDSSAGGGSTITQQYVKKAVVGDERSLIRKAKELVYSAKMANEWSKDEVLEAYLNTVYFGRNAYGVQAAAHAFFDKPVEELTAAEGAVLAASIQLPSQLDPWTNP	failed
SREPVDILREQKINAEWALKQQSDKLAAQFDNMDDAYLRERKQDMLQVVRRIHNNLIGQGNELEVADNLFDETVLIANDLSPADTVLFKEQR	failed
SRFLVLGGAGSIGQAVTKEIFKRNPKKLHVVDISENNMVELVRDIRSSFGYIDGDFQTFALDIGSLEYDAFIKADGKFDYVLNLSALKHVRSEKDPYTLMRMIDVNVFNTDKTIQQSIDAGAKKYFCVSTDKAANPVNMMGASKRIMEMFLMRKSEQIAISTARFANVAFSDGSLLHGFNQRIQKRQPIVAPND	failed
SRIEERKAIIGLYNYAHEMTHGASDREYPRLGQMIVDYENPLKKMMEEFVPHSKSLSDALISLQMVYPRRNLSADQWRNAQLLSLISAPSTMLNPAQSDTMPCEYLSLDAMEKWIIFGFILCHGILNTDATALNLWKLALQSSSCLSLFRDEVFHIHKAAEDLFVNIRGYNKRINDIRECKEAAVSHAGSMHRERRKFLRSALKELATVLSDQPGLLGPKALFVFMALSFARDEIIWLLRHADNMPKKSADDFIDKHIAELIFYMEELRAHVRKYGPVMQRYYVQYLSGFDAVVLNELVQNLSVCPEDESIIMSSFVNTMTSLSVKQVEDGEVFDFRGMRLDWFRLQAYTSVSKASLGLADHRELGKMMNTIIFHTKMVDSLVEMLVETSDLSIFCFYSRAFEKMFQQCLELPSQSRYSIAFPLLCTHFMSCTHELCPEERHHIGDRSLSLCNMFLDEMAKQARNLITDICTEQCTLSDQLLPKHCAKTISQAVN	failed
SRLPKSPPYTAFLGNLPYDVTEESIKEFFRGLNISAVRLPREPSNPERLKGFGYAEFEDLDSLLSALSLNEESLGNKRIRVDVADQAQDKD	not failed
SRPATPPVTPPSREGHVADLDRFPQDLRVYAMKAGADRQLLPFTEQAAQDARWNRRFFAPWRMTRISVPVKDVAAPFGTDGRPRGYAENLLPWDVTRWGALASGAALDLYPSQAWKGIVVSNSALREVPTLRPMFTAPTRAGQGYPFDMFQRTAVWMGTPVFVGHATADRAWLYVETAFAAGWMPAADVARVDDAFMTRYESGSLAAILRDDTSLNGADGTHLATAHIGTVLPLSGASQVGRTVLVPVRAPEGHAVVVPVLLTSGEAAQKPVPLTPGNMAELGNRMMGQPYGWGGLYEDRDCSSTLRDLFTPFGLWLPRNSASQAKAGRYVDIAKLDADDKEARIVAEGVPFMTLLWLRGHITLYLGLHEGQAAMFHNMWGIRTHRGGVEGRYVLGRAVVTSTRPGLDVPGNDNADGLLGRMQGMSILPGGAQ	not failed
SSAHMSGLEIMDEDQLIKDVLDKFLNCHEQTYDEEFLNTFTHLSQDLLLLPGEVEQDVSTSIPSCIPFVAQPPTCEVKPKPSVKRMDKQTEEILGDEVQLFSLDEEFDYDNVMLTSKFSPAEIENIKELCKQQKRKDTSPDLEKSCD	failed
SSANEDQEMELEALRSIYEGDESFRELSPVSFQYRIGENGDPKAFLIEISWTETYPQTPPILSMNAFFNNTISSAVKQSILAKLQEAVEANLGTAMTYTLFEYAKDNKEQFMENHNPINSATSISNIISIETPNTAPSSKKKDKKEQLSKAQKRKLADKTDHKGELPRGWNWVDVVKHLSKTGSKDDE	failed
SSEAKKGHVLFFPYPLQGHINPMIQLAKRLSKKGITSTLIIASKDHREPYTSDDYSITVHTIHDGFFPHEHPHAKFVDLDRFHNSTSRSLTDFISSAKLSDNPPKALIYDPFMPFALDIAKDLDLYVVAYFTQPWLASLVYYHINEGTYDVPVDRHENPTLASFPGFPLLSQDDLPSFACEKGSYPLLHEFVVRQFSNLLQADCILCNTFDQLEPKVVKWMNDQWPVKNIGPVVPSKFLDNRLPEDKDYELENSKTEPDESVLKWLGNRPAKSVVYVAFGTLVALSEKQMKEIAMAISQTGYHFLWSVRESERSKLPSGFIEEAEEKDSGLVAKWVPQLEVLAHESIGCFVSHCGWNSTLEALCLGVPMVGVPQWTDQPTNAKFIEDVWKIGVRVRTDGEGLSSKEEIARCIVEVMEGERGKEIRKNVEKLKVLAREAISEGGSSDKKIDEFVALLT	failed
SSGVIAFDEGFRVTTVNQGAQTILQADLRSVIGRPLETVDGMLEFAQVVRQAFAAHAAVGSERLHWQQQFEITPGLDETGGQPVTLLARGTHLRVD	failed
SSISQQTIAETDGDSAGSDSFPVGRTHHRWYLCHFGQSLIHVIQVVIGYFIMLAVMSYNTWIFLGVVLGSAVGYYLAYPLLSTA	failed
SSKELLMKLRRKTGYSFVNCKKALETCGGDLKQAEIWLHKEAQKEGWSKAA	not failed
SSSSCTVTTGTLGFGDKFKRPIGSWECSVCCVSNNAEDNKCVSCMSEKPG	not failed
STGESSSVSERGSLKQQLREYIRWEEAARNLLGLIEAKENRNHQPPQPKALGNQQPSWDSEDSSNFKD	failed
STGNGWFAGFPIFSWYFGRDGLWMGLAANTVGMSHLTREHMRTLLIYSKDGRIPHEIGLSNDGMQSYSISDRIFNTMYMSIDSSLLWLLSNKSLENWESKGFEHDNVTRVFKFASSCDSDGDGLLENNFSDGLIGWPETWANIRNGKAVDINALWVKTVELYSNELNIANAEELKKKYLESFFSNVSFTDFIDNSGYAKSVKSAMQFVPGIFFTNNNIVETIKQLAEGNLTPWGVRSVSVDDPMFDGGYHTGTVWPLMTGWFVLSAYKNGLKDIAFKQLMTFSELAFSSPDLGRINETYDSMIANPTGQFAQGWSSSMLVLSVMQGLLGIDSIEF	failed
STIIYIKDLNGRYTLVNNKYCEVLGIERRKIIGAMDFELFQPPLAELYQQNDQRANNSHDALHFEEPIPTPRGEIIYHMTKFDIRDDE	failed
STTEEESLSAAEEGYNVQRDYWRQAEESDGFDIENIKLPPGMHGRVMGLITYNCQLCYRYPFPVLVKLYAKFGLHRYNLIKGTSFELAALMKFNMLQNYMSSFYMTLLAHDPDPAASSSQKTFQVRVDEQQFGTLGINCSIARPKHEGDLLEVSTKTPFIPHFHGGALGDGIFKGELPDCLSDDALNALMEAVSKDELPEHVLDDALYARAGGIFQGELPDWPSDDALNDGKRFYMLKESEWQATDWISMYLELVITTTDRSITEPEVLSKLEIVKVAIETATKDEEPSNERLKAYRAHFYITFKGLAEPRAPRQVFEIGEHVERQAIVRRVMGHRGDLTLKGKLCGGQYIKRRSLALKSGEESPNCKKQTRVG	failed
SVQEAPAALPTEPGPSPVPAFLGKLWALVGDPGTDHLIRWSPSGTSFLVSDQSRFAKEVLPQYFKHSNMASFVRQLNMYGFRKVVSIEQGGLLRPERDHVEFQHPSFVRGREQLLERVRRKVPALRGDDGRWRPEDLGRLLGEVQALRGVQESTEARLRELRQQNEILWREVVTLRQSHGQQHRVIGKLIQCLFGPLQAGPSNAGGKRKLSLMLDEGSSCPTPAKFNTCPLPGALLQDPYFIQSPLPETNLGLSPHRARGPIISDIPEDSPSPEGTRLSPSSDGRREKGLALLKEEPASPGGDGEAGLALAPNECDFCVTAPPPLPVAVVQAILEGKGSFSPEGPRNAQQPEPGDPREIPDRGPLGLESGDRSPESLLPPMLLQPPQESVEPAGPLDVLGPSLQGREWTLMDLDMELSLMQPLVPERGEPELAVKGLNSPSPGKDPTLGAPLLLDVQAALGGPALGLPGALTIYSTPESRTASYLGPEASPSP	not failed
SVSAGVQAVESILDREEIRRVILVGAGTGAGVALEIAKNQPRRVERLVLDSPLVTFDEKQLKGMSTALKMMPGFFFRKKNKKDLLQQVEEARTAVPMGFSEITMPTLIIRGSAAKAGIDSDLEKQIPSARATTIIGANWLTYTTHGRQTGAAIAEFLAQ	failed
SVVAKVKIPEGTILTMDMLTVKVGEPKGYPPEDIFNLVGKKVLVTVEEDDTIMEELVDNHGKKIKS	not failed
